Experimental data from patent US8101379B2, “Preparation of low bleeding anticoagulant fusion protein and its use” (Institute of Radiation Medicine Academy of Military Medical …, priority 2006, dated 2012).
Values belong to the molecule of their own block, whether it stands above or below them.

Key:
[1] = system: T1, GVYAR-HV2 (GH), hirudin HV2 with GVYAR linked to its N-terminus
T1 sequence: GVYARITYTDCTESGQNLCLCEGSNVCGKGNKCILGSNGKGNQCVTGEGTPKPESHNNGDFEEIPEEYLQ

[2] = system: FH, hirudin linked at its amino-terminal with an oligopeptide recognizable and cleavable by blood coagulation factor Xa
[3] = system: TH, hirudin linked at its amino-terminal with an oligopeptide recognizable and cleavable by thrombin
[4] = system: T2, EPR-HV2 (EH), hirudin HV2 with EPR linked to its N-terminus
T2 sequence: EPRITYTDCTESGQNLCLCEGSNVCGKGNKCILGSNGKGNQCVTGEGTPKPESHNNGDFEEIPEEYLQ

[5] = system: rat carotid artery thrombosis model; experiment: Plasma TT levels in rat carotid artery thrombosis model; type: in vivo; details: NS group = 100%, X ± SD
Source text: (§1) (1) Analyses of GH, EH, FH and TH antithrombotic and hemorrhagic side-effects in rat carotid artery thrombosis model, and the results were listed in table 2 and 3.

[6] = system: rat carotid artery thrombosis model; experiment: Time needed for thrombogenesis in rat carotid artery thrombosis model; type: in vivo; details: for Time needed for thrombogenesis: rat carotid artery, X ± SD, 10 animals; for time needed for thrombogenesis (in words): rat carotid artery thrombosis model, statement on table 2
Source text: as §1

tail-cut mouse = experiment: Bleeding time in hemorrhagic model of tail-cut mouse; type: in vivo; details: for Bleeding time: X ± SD, 15 animals; for influence on hemorrhagic indexes compared with HV2 (in words): statement on table 3 and 4
Protocol: (2) The hemorrhagic side-effects of GH, EH, TH and FH in hemorrhagic model of tail-cut mouse were analyzed, and the results were listed in Table 4.

FXa = FXa (Homo sapiens, UniProt P00742); experiment: Anticoagulation activity by fibrin-clot method before and after cleavage by FXa; type: biochemical
Chain of FXa (P00742 235-488 limits assumed): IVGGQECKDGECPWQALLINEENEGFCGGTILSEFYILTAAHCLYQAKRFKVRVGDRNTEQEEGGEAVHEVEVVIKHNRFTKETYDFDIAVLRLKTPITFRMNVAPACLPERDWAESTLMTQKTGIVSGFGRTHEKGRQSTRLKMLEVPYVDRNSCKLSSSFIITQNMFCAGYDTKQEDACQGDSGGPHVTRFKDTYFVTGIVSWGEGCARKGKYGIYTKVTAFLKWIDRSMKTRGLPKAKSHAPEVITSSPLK
Chain of FXa (P00742 41-179 partner limits assumed): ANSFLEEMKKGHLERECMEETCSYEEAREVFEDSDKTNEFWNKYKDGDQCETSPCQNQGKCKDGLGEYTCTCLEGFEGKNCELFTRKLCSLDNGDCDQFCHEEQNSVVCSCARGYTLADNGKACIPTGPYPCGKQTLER
Protocol: (§2) EH, GH, FH and TH were cleaved respectively by thrombin, FXa and FXIa, then the activities of anticoagulation were assayed by fibrin-clot method.

FXIa = FXIa (Homo sapiens, UniProt P03951); experiment: Anticoagulation activity by fibrin-clot method before and after cleavage by FXIa; type: biochemical
Chain of FXIa (P03951 388-625 limits assumed): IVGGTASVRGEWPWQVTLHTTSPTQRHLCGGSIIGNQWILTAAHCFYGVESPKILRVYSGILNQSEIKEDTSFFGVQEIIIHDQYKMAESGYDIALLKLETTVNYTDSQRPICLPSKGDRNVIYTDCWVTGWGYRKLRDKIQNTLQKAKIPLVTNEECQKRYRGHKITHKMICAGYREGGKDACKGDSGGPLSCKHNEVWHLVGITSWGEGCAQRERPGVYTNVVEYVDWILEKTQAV
Chain of FXIa (P03951 19-387 partner limits assumed): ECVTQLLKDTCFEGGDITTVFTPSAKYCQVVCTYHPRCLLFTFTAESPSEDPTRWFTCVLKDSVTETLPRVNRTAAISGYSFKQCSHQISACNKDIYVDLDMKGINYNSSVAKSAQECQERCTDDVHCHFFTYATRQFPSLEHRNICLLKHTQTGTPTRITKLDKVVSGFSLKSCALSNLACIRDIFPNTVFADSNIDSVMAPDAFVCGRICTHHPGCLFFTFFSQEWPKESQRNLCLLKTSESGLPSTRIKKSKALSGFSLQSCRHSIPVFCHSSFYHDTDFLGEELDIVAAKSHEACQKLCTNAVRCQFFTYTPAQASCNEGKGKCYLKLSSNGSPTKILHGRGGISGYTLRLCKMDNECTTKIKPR
Protocol: as §2

thrombin = thrombin (Homo sapiens, UniProt P00734); experiment: Anticoagulation activity by fibrin-clot method before and after cleavage by thrombin; type: biochemical
Protocol: as §2

Molecule: blood coagulation factor XIa
anticoagulation activity (fibrin-clot method) after 3 h of cleavage [1]: 0 | anticoagulation activity (fibrin-clot method) after 6 h of cleavage [1]: 0 | anticoagulation activity (fibrin-clot method) at 0 h of cleavage [1]: 0 | recognition and cleavage, read by release of anticoagulation activity [1]: GH can be recognizable and cleavable by two blood coagulation factors of FXIa and FXa respectively | anticoagulation activity (fibrin-clot method) after 3 h of cleavage [2]: 0 | anticoagulation activity (fibrin-clot method) after 6 h of cleavage [2]: 0 | anticoagulation activity (fibrin-clot method) at 0 h of cleavage [2]: 0 | anticoagulation activity (fibrin-clot method) after 3 h of cleavage [3]: 0 | anticoagulation activity (fibrin-clot method) after 6 h of cleavage [3]: 64 | anticoagulation activity (fibrin-clot method) at 0 h of cleavage [3]: 0 | anticoagulation activity (fibrin-clot method) after 3 h of cleavage [4]: 256 | anticoagulation activity (fibrin-clot method) after 6 h of cleavage [4]: 512 | anticoagulation activity (fibrin-clot method) at 0 h of cleavage [4]: 0

Molecule: blood coagulation factor Xa
anticoagulation activity (fibrin-clot method) after 3 h of cleavage [1]: 64 | anticoagulation activity (fibrin-clot method) after 6 h of cleavage [1]: 128 | anticoagulation activity (fibrin-clot method) at 0 h of cleavage [1]: 0 | recognition and cleavage, read by release of anticoagulation activity [1]: GH can be recognizable and cleavable by two blood coagulation factors of FXIa and FXa respectively | anticoagulation activity (fibrin-clot method) after 3 h of cleavage [2]: 64 | anticoagulation activity (fibrin-clot method) after 6 h of cleavage [2]: 128 | anticoagulation activity (fibrin-clot method) at 0 h of cleavage [2]: 0 | recognition and cleavage, read by release of anticoagulation activity [2]: while FH only by FXa | anticoagulation activity (fibrin-clot method) after 3 h of cleavage [3]: 32 | anticoagulation activity (fibrin-clot method) after 6 h of cleavage [3]: 64 | anticoagulation activity (fibrin-clot method) at 0 h of cleavage [3]: 0 | anticoagulation activity (fibrin-clot method) after 3 h of cleavage [4]: 64 | anticoagulation activity (fibrin-clot method) after 6 h of cleavage [4]: 128 | anticoagulation activity (fibrin-clot method) at 0 h of cleavage [4]: 0 | recognition and cleavage, read by release of anticoagulation activity [4]: EH can be recognizable and cleavable by two blood coagulation factors of thrombin and FXa respectively

Molecule: hirudin [HV2, reference compound]
% of TT changes ([5]; 2 mg/kg): 1005.62 ± 361.28 % | Time needed for thrombogenesis ([6]; 2 mg/kg): 1117.00 ± 243.95 s | Bleeding time (tail-cut mouse; tail-cut mouse, 1.5 mg/kg): 1532.5 ± 420.74 s

Molecule: thrombin
anticoagulation activity (fibrin-clot method) after 3 h of cleavage [1]: 2 | anticoagulation activity (fibrin-clot method) after 6 h of cleavage [1]: 8 | anticoagulation activity (fibrin-clot method) at 0 h of cleavage [1]: 0 | anticoagulation activity (fibrin-clot method) after 3 h of cleavage [2]: 2 | anticoagulation activity (fibrin-clot method) after 6 h of cleavage [2]: 8 | anticoagulation activity (fibrin-clot method) at 0 h of cleavage [2]: 0 | anticoagulation activity (fibrin-clot method) after 3 h of cleavage [3]: 0 | anticoagulation activity (fibrin-clot method) after 6 h of cleavage [3]: 0 | anticoagulation activity (fibrin-clot method) at 0 h of cleavage [3]: 0 | recognition and cleavage, read by release of anticoagulation activity [3]: TH only by thrombin | anticoagulation activity (fibrin-clot method) after 3 h of cleavage [4]: 0 | anticoagulation activity (fibrin-clot method) after 6 h of cleavage [4]: 0 | anticoagulation activity (fibrin-clot method) at 0 h of cleavage [4]: 0 | recognition and cleavage, read by release of anticoagulation activity [4]: EH can be recognizable and cleavable by two blood coagulation factors of thrombin and FXa respectively

anticoagulation activity (FXa; 0 h): 0 | anticoagulation activity (FXa; 3 h): 64 | anticoagulation activity (FXa; 6 h): 128 | anticoagulation activity (FXIa; 0 h): 0 | anticoagulation activity (FXIa; 3 h): 0 | anticoagulation activity (FXIa; 6 h): 0 | anticoagulation activity (thrombin; 0 h): 0 | anticoagulation activity (thrombin; 3 h): 2 | anticoagulation activity (thrombin; 6 h): 8
B1: GH: hirudin (HV2) linked at its amino-terminal with the oligopeptide GVYAR recognizable and cleavable by both thrombin and coagulation factor Xa (protein)
chain: T1 sequence
modifications: ends and bridges not checked
notes: hirudin (HV2) linked at its amino-terminal with the oligopeptide GVYAR recognizable and cleavable by both thrombin and coagulation factor Xa
% of TT changes ([5]; 2 mg/kg): 104.35 ± 17.21% | % of TT changes ([5]; 4 mg/kg): 114.94 ± 19.82 % | time needed for thrombogenesis (in words) [6]: prolonged in a dose-dependent manner | Time needed for thrombogenesis ([6]; 2 mg/kg): 918.10 ± 204.16 s | Time needed for thrombogenesis ([6]; 4 mg/kg): 1006.7 ± 227.37 s | influence on hemorrhagic indexes compared with HV2 (in words) (tail-cut mouse): less than that of HV2 | Bleeding time (tail-cut mouse; tail-cut mouse, 1.5 mg/kg): 165.46 ± 142.42 s | Bleeding time (tail-cut mouse; tail-cut mouse, 6 mg/kg): 304 ± 178.99 s | bleeding time compared with FH and TH (in words) (tail-cut mouse; tail-cut mouse, statement): significantly shorter bleeding time than that of FH and TH group

anticoagulation activity (FXa; 0 h): 0 | anticoagulation activity (FXa; 3 h): 64 | anticoagulation activity (FXa; 6 h): 128 | anticoagulation activity (FXIa; 0 h): 0 | anticoagulation activity (FXIa; 3 h): 256 | anticoagulation activity (FXIa; 6 h): 512 | anticoagulation activity (thrombin; 0 h): 0 | anticoagulation activity (thrombin; 3 h): 0 | anticoagulation activity (thrombin; 6 h): 0
B2: EH: hirudin (HV2) linked at its amino-terminal with the oligopeptide EPR recognizable and cleavable by both coagulation factors XIa and Xa (protein)
chain: T2 sequence
modifications: ends and bridges not checked
notes: hirudin (HV2) linked at its amino-terminal with the oligopeptide EPR recognizable and cleavable by both coagulation factors XIa and Xa
% of TT changes ([5]; 2 mg/kg): 108.41 ± 12.95% | % of TT changes ([5]; 4 mg/kg): 121.81 ± 13.68 % | time needed for thrombogenesis (in words) [6]: prolonged in a dose-dependent manner | Time needed for thrombogenesis ([6]; 2 mg/kg): 964.10 ± 179.68 s | Time needed for thrombogenesis ([6]; 4 mg/kg): 1083.90 ± 227.10 s | influence on hemorrhagic indexes compared with HV2 (in words) (tail-cut mouse): less than that of HV2 | Bleeding time (tail-cut mouse; tail-cut mouse, 1.5 mg/kg): 203.89 ± 97.41 s | Bleeding time (tail-cut mouse; tail-cut mouse, 6 mg/kg): 338.77 ± 169.08 s
